Experimental data taken from patent CN113754773A (SUNSHINE GUOJIAN PHARMACEUTICAL SHANGHAI CO LTD, dated 2021).

Key:
[1] = target: PD-1 on PD1 effector cells (Promega PD-1/PD-L1 Blockade Bioassay) (UniProt Q15116 25-288, limits assumed); test: cell-based or functional assay
[2] = target: PD-L1 on PD-L1 aAPC/CHO-K1 cells (Promega PD-1/PD-L1 Blockade Bioassay) (UniProt Q9NZQ7 19-290, limits assumed); test: cell-based or functional assay
PD1-ECD-hFc蛋白 [3] = target: T1, PD1-ECD-hFc蛋白 (human, UniProt Q15116 25-170); test: ELISA, PD1-ECD-hFc coated, HRP mouse anti-human Fab
T1 construct: extracellular domain; Made in house in HEK-293E cells; also called PD-1抗原; not shown: hFc at the C-terminus
T1 sequence (Q15116 25-170): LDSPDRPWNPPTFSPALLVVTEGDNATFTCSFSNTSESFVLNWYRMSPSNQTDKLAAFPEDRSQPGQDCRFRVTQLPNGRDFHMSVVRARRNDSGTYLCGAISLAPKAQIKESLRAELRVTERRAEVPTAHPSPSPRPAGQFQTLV

PDL1-ECD-His蛋白 = target: T2, PDL1-ECD-His蛋白 (human, UniProt Q9NZQ7 19-238); test: ELISA, PDL1-ECD-His coated, HRP mouse anti-human Fab
T2 construct: extracellular domain; Made in house in HEK-293E cells; also called PD-L1抗原
T2 sequence (Q9NZQ7 other isoform, or with tags, fused parts or gaps): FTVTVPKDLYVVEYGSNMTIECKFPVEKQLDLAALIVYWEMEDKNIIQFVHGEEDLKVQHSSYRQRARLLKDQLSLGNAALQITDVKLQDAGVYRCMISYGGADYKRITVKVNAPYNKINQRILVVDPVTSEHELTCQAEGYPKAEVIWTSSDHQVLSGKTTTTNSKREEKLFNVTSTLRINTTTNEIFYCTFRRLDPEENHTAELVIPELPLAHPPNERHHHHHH

PD-L1 on N87-PDL1 cells = target: T3, PD-L1 on N87-PDL1 cells (UniProt Q9NZQ7 19-290, limits assumed); test: flow cytometry on N87-PDL1 cells, goat anti-human IgG-FITC
T3 construct: whole, on cells; also called N87-PDL1细胞
T3 sequence (Q9NZQ7 19-290 limits assumed): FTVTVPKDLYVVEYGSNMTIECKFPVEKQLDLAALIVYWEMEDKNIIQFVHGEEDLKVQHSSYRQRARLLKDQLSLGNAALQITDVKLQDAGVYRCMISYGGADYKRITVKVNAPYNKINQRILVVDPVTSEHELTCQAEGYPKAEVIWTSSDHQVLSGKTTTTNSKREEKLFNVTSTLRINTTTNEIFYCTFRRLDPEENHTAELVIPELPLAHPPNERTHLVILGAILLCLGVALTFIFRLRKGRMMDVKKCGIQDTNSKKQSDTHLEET

[4] = target: T4, PD-1 on CHO stable cells (PD-1/CHO) (UniProt Q15116 25-288, limits assumed); test: flow cytometry on CHO cells stably expressing PD-1, goat anti-human IgG-FITC
T4 construct: whole, on cells; also called 细胞表面表达PD-1的CHO稳转细胞; PD-1/CHO细胞
T4 sequence (Q15116 25-288 limits assumed): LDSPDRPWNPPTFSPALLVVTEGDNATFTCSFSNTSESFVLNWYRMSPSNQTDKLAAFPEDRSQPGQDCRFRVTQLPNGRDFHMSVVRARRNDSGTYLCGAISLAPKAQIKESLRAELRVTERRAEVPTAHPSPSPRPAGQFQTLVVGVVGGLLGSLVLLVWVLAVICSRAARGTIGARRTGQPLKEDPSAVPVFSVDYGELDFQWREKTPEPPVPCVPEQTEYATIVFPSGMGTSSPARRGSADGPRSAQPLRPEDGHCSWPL

PD1-ECD-hFc蛋白 [5] = target: T1, PD1-ECD-hFc蛋白; test: bridging ELISA: PD1-ECD-hFc coated, antibody titrated, then PDL1-ECD-His at 1000ng/ml, read with HRP-anti-His (both antigens bound at once)

PD-L1 on PD-L1 aAPC/CHO-K1 cells (Promega PD-1/PD-L1 Blockade Bioassay), sequence (Q9NZQ7 19-290 limits assumed): as the sequence (Q9NZQ7 19-290 limits assumed) above
PD-1 on PD1 effector cells (Promega PD-1/PD-L1 Blockade Bioassay), sequence (Q15116 25-288 limits assumed): as the sequence (Q15116 25-288 limits assumed) above

Binder | IC50, luminescence (PD-1/PD-L1 Blockade Bioassay) [1] [nM] | IC50, luminescence (PD-1/PD-L1 Blockade Bioassay) [2] [nM] | EC50 (PD1-ECD-hFc蛋白 [3]) [nM] | EC50 (PDL1-ECD-His蛋白) [nM] | EC50 (PD-L1 on N87-PDL1 cells) [nM] | EC50 [4] [nM] | EC50 (PD1-ECD-hFc蛋白 [5]) [nM]
anti-PD1×PDL1 BsAb (bispecific antibody, human IgG1, kappa, also called 抗PD1×PDL1双抗; 抗PD1×PDL1双特异性抗体) heavy: not shown light: EIVLTQSPDFLSVTPKEKVTITCRASQSIGTTIHWYQQKPDQSPKLLIKYASQSFSGVPSRFSGSGSGTDFTLTINSVEAEDAATYYCQQSNSWPLTFGAGTKLEIKRTVAAPSVFIFPPSDEQLKSGTASVVCLLNNFYPREAKVQWKVDNALQSGNSQESVTEQDSKDSTYSLSSTLTLSKADYEKHKVYACEVTHQGLSSPVTKSFNRGEC | 0.24 | 0.24 | 0.3 | 0.29 | 0.15 | 1.43 | 0.36
抗PD-L1单抗 (M8) (antibody, human IgG1, kappa, V domains shown, also called 抗人PD-L1单抗M8; anti-PD-L1 mAb) VH: QVQLQQSGGGLVKPSQSLSLTCTVSGFSLTSYGVHWVRQPPGKGLEWIGLIWSGGGTDYNPSLKSRLTISRDTSKNQVSFKISSLTAADTAVYYCARQLGLRAMDYWGQGTSVTVSS VL: EIVLTQSPDFLSVTPKEKVTITCRASQSIGTTIHWYQQKPDQSPKLLIKYASQSFSGVPSRFSGSGSGTDFTLTINSVEAEDAATYYCQQSNSWPLTFGAGTKLEIKR | – | 0.42 | – | 0.27 | 0.11 | – | –
